Consider one molecule from patent publication US20110287979A1 (ONCOMED PHARMACEUTICALS, published 2011).

For the assay, the target named is T1, hJag1-rFc (human; rabbit, UniProt P78504 34-1067; P01870 96-323, limits assumed).
T1 construct: also called hJag-rFc; control antigen
Description: FACS of transfected HEK-293 cells incubated with hJag-rFc and PE-labeled anti-rabbit Fc antibody. Here is the method:
The effect of carrier plasmid on the transfection and display of an Ab-encoding plasmid was tested. The single chain anti-DLL4 antibody (sc21M18) described above was transfected with varying ratios of carrier plasmid. In this study, the carrier plasmid encoded an irrelevant […] antibody (sc18R5). The cells were also transfected with the Membrane-MAb(hIgG2)-GFP construct. The concentration of Ab library plasmid in the cells could be inferred from the level of surface expression of the anti-DLL4 antibody molecule. Approximately 5×10⁶ HEK-293 cells were transfected with plasmid DNA and harvested after 48 hours. The plasmid DNA was a mixture of sc21M18 and sc18R5, wherein the ratio of sc21M18 to sc18R5 varied from 1 to 10,000-fold excess of sc18R5 (1, 10, 100, 1000 or 10,000-fold excess). For detection of a functional anti-DLL4 antibody molecule on the cell surface, transfected cells were incubated with an hDLL4-rFc fusion protein. Bound hDLL4-rFc was detected with a PE-labeled anti-rabbit Fc antibody. The percentage of cells which expressed anti-DLL4 antibody was determined by FACS analysis. Cells were also incubated with a control antigen (hJag-rFc, -▪-) or only the PE-labeled anti-rabbit Fc antibody (-▴-).

T1 sequence (P78504 other isoform, or with tags, fused parts or gaps limits assumed): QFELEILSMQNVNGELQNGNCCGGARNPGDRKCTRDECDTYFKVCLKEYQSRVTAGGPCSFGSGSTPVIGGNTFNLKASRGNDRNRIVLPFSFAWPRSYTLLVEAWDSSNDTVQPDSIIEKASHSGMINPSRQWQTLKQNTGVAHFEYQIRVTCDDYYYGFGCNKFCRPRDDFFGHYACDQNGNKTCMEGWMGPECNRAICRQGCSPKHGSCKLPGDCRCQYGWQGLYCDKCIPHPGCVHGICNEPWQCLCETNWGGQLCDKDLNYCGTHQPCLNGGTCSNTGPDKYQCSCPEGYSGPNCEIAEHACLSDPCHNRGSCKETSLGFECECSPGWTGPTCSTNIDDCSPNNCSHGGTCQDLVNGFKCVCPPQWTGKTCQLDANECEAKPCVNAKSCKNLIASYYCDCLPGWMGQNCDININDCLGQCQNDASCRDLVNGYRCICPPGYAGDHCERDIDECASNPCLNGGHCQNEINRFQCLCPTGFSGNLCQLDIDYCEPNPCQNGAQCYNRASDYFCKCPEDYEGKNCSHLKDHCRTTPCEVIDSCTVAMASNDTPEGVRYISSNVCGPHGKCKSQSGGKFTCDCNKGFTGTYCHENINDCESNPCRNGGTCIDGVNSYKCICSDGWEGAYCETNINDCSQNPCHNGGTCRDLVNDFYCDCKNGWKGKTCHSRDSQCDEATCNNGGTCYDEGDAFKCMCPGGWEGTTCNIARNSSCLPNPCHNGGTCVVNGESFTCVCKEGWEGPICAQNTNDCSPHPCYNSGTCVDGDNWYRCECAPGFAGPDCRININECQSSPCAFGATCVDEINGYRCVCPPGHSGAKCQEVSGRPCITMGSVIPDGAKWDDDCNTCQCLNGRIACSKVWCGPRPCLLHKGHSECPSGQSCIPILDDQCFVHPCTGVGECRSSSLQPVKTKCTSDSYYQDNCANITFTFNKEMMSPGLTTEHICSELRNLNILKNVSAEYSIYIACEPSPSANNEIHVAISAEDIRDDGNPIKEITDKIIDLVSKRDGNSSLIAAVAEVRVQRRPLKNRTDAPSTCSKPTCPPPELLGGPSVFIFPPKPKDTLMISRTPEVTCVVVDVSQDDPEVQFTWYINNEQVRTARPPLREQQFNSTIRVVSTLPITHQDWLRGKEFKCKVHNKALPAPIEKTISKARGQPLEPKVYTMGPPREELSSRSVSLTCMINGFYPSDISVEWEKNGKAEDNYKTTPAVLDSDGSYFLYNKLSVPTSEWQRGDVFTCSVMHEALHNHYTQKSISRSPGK

B1: heterodimeric antibody molecule: single chain anti-DLL4 antibody sc21M18 associated with the Membrane-MAb(hIgG2)-GFP protein on the surface of HEK-293 cells (antibody)
chain 1: DIVMTQSPDSLAVSLGERATISCRASESVDNYGISFMKWFQQKPGQPPKLLIYAASNQGSGVPDRFSGSGSGTDFTLTISSLQAEDVAVYYCQQSKEVPWTFGGGTKVEIKRTVAAPSVFIFPPSDEQLKSGTASVVCLLNNFYPREAKVQWKVDNALQSGNSQESVTEQDSKDSTYSLSSTLTLSKADYEKHKVYACEVTHQGLSSPVTKSFNRGECGGGGGSGGGGSGGGGSGGGGSGGGGSGGGGSQVQLVQSGAEVKKPGASVKISCKASGYSFTAYYIHWVKQAPGQGLEWIGYISSYNGATNYNQKFKGRVTFTTDTSTSTAYMELRSLRSDDTAVYYCARDYDYDVGMDYWGQGTLVTVSSASTKGPSVFPLAPCSRSTSESTAALGCLVKDYFPEPVTVSWNSGALTSGVHTFPAVLQSSGLYSLSSVVTVPSSNFGTQTYTCNVDHKPSNTKVDKTVERKCCVECPPCPAPPVAGPSVFLFPPKPKDTLMISRTPEVTCVVVDVSHEDPEVQFNWYVDGVEVHNAKTKPREEQFNSTFRVVSVLTVVHQDWLNGKEYKCKVSNKGLPAPIEKTISKTKGQPREPQVYTLPPSREEMTKNQVSLTCLVKGFYPSDIAVEWESNGQPENNYKTTPPMLDSDGSFFLYSKLTVDKSRWQQGNVFSCSVMHEALHNHYTQKSLSLSPGK
chain 2: not shown
notes: also called anti-DLL4 antibody molecule
On to B1, for which the binding result is “no binding”.
